We go through 9 molecules from patent US20140322220A1 (Bayer, published 2014).

Numbered stars: 1 amine (or outer) side, 2 acyl side, 3 side chain; on linkers, the order of the positions; unused ones are H or OH. Square brackets hold non-standard residues; d marks the D form. Ends that are not written are not given here. * marks the point of attachment. Biotin = O=C1N[C@H]2[C@H](CS[C@H]2CCCCC(=O)*)N1; Ttds = O=C(CCC(=O)[*:2])NCCCOCCOCCOCCCN[*:1]

Experiment [1] concerns the target T1, RPSFSLVEDTTLEPEG-Ttds-Lys(Biotin) (human).
T1 construct: Synthesized by JPT Peptide Technology
T1 peptide: RPSFSLVEDTTLEPEG[Ttds]K(Biotin)
Briefly: peptide binding ELISA, antibody captured by anti-human IgG Fc, biotinylated peptide titrated; against TPP-1403. From the text: (§1) Two different types of ELISA were used to determine the binding improvement of mutated variants: a) Peptide Binding ELISA: a synthetic peptide comprising the amino acid sequence of the epitope linked C-terminally to a biotinylated lysine […]-Ttds-Lys(Biotin) (peptide sequence derived from SEQ ID NO:63, synthesized by JPT Peptide Technology GmbH, Berlin, Germany), and b) Recombinant Protein Binding ELISA: recombinant human FGFR2 (DNA sequence of human FGFR2 (NP 000132.3) Met 1-Glu 377, fused with a polyhistidine tag at the C-terminus; #10824-1-1081-1, Sin θ Biological Inc., Beijing, China).
(§2) Briefly, in both ELISA formats MTP plates (384 well Maxisorp, Nunc) were coated with 20 μl, anti-human IgG Fc specific (#12136; sigma) at 2.2 μg/ml for 2.5 h at 37° C. in coating buffer (#121125 Candor Bioscience GmbH). […] Anti-FGFR2 variants were immobilized in concentrations of 0.035 μg/ml (peptide based assay) or 0.2 μg/ml (recombinant human FGFR2 protein based assay) in 10% Smart Block in PBST depending on the format and variants to be analyzed by incubation of 20 μl for one hour at 20-22° C. […] After 3 washing steps 20 μl of 10 μM amplex red substrate (# A12222, Invitrogen) in 50 mM Sodium hydrogen phosphate, pH 7.6, were added and the fluorescence signal was detected using a common fluorescence reader, e.g. Tecan M1000. […]

Experiment [2] has as its target T2, recombinant human FGFR2 (Met 1-Glu 377) with C-terminal polyhistidine tag (human, UniProt P21802 22-377).
T2 construct: The range is that of the expressed DNA and begins at Met 1; also called His-tagged FGFR2; recombinant human FGFR2-IIIc molecule
Put plainly: protein binding ELISA; against TPP-1403.
Text: as §1
(§3) Briefly, in both ELISA formats MTP plates (384 well Maxisorp, Nunc) were coated with 20 μl, anti-human IgG Fc specific (#12136; sigma) at 2.2 μg/ml for 2.5 h at 37° C. in coating buffer (#121125 Candor Bioscience GmbH). […] Anti-FGFR2 variants were immobilized in concentrations of 0.035 μg/ml (peptide based assay) or 0.2 μg/ml (recombinant human FGFR2 protein based assay) in 10% Smart Block in PBST depending on the format and variants to be analyzed by incubation of 20 μl for one hour at 20-22° C. After one washing step using 50 μl PBST, 20 μl quadruplets of the antigen dilution series in 10% SmartBlock in PBST with a maximum concentration of 100 nM were added and incubated for 1 h at 20-22° C. and the washing step was repeated 3 times. For the detection of the biotinylated epitope peptide 20 μl of streptavidine/POD conjugate (# S5512, Sigma) in a 1:1000 dilution in 10% SmartBlock in PBST were applied for one hour at 20-22° C. For the detection of the recombinant FGFR2 protein 20 μl of anti-His/HRP conjugate (#71840, novagen) in a 1:10000 dilution in 10% SmartBlock in PBST were applied for one hour at 20-22° C. After 3 washing steps 20 μl of 10 μM amplex red substrate (# A12222, Invitrogen) in 50 mM Sodium hydrogen phosphate, pH 7.6, were added and the fluorescence signal was detected using a common fluorescence reader, e.g. Tecan M1000. EC50 values were evaluated by fitting the data (Sigmoida) dose-response, variable slope, bottom set to background; GraphPad Prism software).

Experiment [3] deals with T2, recombinant human FGFR2 (Met 1-Glu 377) …. Briefly: protein binding ELISA, antibody captured by anti-human IgG Fc, FGFR2-His titrated.
Text: as §1, §3

The target in experiment [4] is T1, RPSFSLVEDTTLEPEG-Ttds-Lys(Biotin). Put plainly: peptide binding ELISA, antibody captured by anti-human IgG Fc, biotinylated peptide titrated.
Text: as §1, §3

Experiment [5] shares this target. Briefly: peptide binding ELISA; against TPP-1403.
Text: as §1, §3

Experiment [6] shares this target. Briefly: peptide ELISA, IgG titration, anti-mouse IgG (Fc specific) POD detection.
The target in the next experiment is T3, rat FGFR2 on RUCA cells (rat, UniProt F1LNW0 41-840).
T3 construct: whole, on cells
Briefly: FACS, 5 ug/ml, RUCA cells. As to the method:
(§4) To determine the binding characteristics of the anti-FGFR2 antibodies on mouse, rat and human cancer cell lines, binding was tested by flow cytometry to a panel of cell lines. Adherent cells were washed twice with PBS (without Ca and Mg) and detached by enzyme-free PBS based cell dissociation buffer (Invitrogen). Cells were suspended at approximately 10⁵ cells/well in FACS buffer (PBS without Ca/Mg, Biochrom containing 3% FCS, Biochrom). Cells were centrifuged (250 g, 5 min, 4° C.) and supernatant discarded. Cell were resuspended in dilutions of the antibodies of interest (5 μg/ml in 80 μl if not indicated otherwise) in FACS buffer, and incubated on ice for 1 h. […] After incubation for 1 h on ice cells were again washed with cold FACS buffer, resuspended in 100 μl FACS buffer and analyzed by flow cytometry using a FACS-Array (BD Biosciences). Results are calculated as Geo Mean of the detection by the antibody of interest subtracted by background fluorescence as measured by detection with the secondary antibody alone.

For experiment [7], the target named is T4, mutated human FGFR2 on MFE-296 cells (human, UniProt P21802 22-821).
T4 construct: whole, on cells
T4 sequence (P21802 other isoform, or with tags, fused parts or gaps limits assumed, change not shown): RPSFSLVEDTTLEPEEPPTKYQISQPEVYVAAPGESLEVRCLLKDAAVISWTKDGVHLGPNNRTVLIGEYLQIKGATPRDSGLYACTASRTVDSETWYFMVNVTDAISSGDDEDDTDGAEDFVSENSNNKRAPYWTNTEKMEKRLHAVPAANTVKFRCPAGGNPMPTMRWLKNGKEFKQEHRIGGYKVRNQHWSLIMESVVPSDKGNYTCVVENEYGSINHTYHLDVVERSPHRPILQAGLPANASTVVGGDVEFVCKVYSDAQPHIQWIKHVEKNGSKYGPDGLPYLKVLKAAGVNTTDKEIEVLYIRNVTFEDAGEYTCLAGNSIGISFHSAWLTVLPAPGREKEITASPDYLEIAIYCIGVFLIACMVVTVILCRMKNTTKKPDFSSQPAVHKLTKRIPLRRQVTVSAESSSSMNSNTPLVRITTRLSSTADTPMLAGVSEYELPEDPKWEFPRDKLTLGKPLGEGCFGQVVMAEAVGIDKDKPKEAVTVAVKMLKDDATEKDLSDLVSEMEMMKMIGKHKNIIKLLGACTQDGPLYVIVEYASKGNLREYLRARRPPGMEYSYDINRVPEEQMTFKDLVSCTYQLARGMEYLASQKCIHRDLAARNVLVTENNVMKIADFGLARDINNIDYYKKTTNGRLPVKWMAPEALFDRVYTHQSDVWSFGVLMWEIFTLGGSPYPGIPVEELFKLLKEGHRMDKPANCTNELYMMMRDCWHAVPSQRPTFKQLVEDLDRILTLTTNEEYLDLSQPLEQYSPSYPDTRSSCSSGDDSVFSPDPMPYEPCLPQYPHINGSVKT
Briefly: FACS, 5 ug/ml, MFE296 cells. As to the method: as §4

The target in experiment [8] is T5, mutated human FGFR2 on AN3-CA cells (human, UniProt P21802 22-821).
T5 construct: whole, on cells; also called AN3-CA (DSMZ-ACC 267)
T5 sequence (P21802 other isoform, or with tags, fused parts or gaps limits assumed, change not shown): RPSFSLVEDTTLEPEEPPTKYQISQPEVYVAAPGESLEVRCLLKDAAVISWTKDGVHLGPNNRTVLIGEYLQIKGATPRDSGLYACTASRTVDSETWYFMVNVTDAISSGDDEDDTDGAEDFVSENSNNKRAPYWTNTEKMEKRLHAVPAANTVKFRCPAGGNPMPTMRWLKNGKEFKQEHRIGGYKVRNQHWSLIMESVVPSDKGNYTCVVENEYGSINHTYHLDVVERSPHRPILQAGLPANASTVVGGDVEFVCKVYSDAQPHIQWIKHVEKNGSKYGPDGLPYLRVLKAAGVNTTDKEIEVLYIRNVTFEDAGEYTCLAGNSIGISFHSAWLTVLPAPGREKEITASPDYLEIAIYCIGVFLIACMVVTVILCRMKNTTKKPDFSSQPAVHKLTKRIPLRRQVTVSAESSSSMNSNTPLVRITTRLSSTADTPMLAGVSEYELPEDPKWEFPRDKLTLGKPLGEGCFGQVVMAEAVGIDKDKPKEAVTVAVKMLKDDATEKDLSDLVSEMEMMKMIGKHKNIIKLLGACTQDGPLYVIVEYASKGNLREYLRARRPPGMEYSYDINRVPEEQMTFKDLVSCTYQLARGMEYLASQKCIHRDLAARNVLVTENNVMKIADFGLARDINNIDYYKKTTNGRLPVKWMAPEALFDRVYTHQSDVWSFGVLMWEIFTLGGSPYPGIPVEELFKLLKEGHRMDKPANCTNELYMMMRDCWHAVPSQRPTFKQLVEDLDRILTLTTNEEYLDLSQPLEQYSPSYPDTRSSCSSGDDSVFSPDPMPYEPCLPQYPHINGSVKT
Put plainly: FACS, 5 ug/ml, AN3CA cells. As to the method:
as §4

Experiment [9] addresses T1, RPSFSLVEDTTLEPEG-Ttds-Lys(Biotin). Put plainly: peptide binding ELISA; against TPP-1415.
Text: as §1, §2

The target in experiment [10] is T2, recombinant human FGFR2 (Met 1-Glu 377) …. Briefly: protein binding ELISA; against TPP-1415.
Text: as §1, §3
Target sequence in this assay (P21802 22-377 limits assumed): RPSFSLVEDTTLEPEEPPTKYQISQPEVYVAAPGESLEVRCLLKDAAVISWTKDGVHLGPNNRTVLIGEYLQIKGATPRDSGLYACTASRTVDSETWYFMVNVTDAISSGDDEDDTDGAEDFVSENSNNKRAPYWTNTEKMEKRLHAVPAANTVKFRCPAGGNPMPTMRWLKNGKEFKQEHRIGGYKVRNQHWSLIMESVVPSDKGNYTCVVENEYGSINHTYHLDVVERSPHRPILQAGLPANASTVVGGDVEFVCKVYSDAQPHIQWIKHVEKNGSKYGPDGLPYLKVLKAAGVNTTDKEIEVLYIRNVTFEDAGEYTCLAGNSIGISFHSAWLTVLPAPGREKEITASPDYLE

B1: TPP-1397 (antibody, human IgG1, lambda, V domains shown)
VH: EVQLLESGGGLVQPGGSLRLSCAASGFTFSSYAMSWVRQAPGKGLEWVSAISKSGGSTFYADSVKGRFTISRDNSKNTLYLQMNSLRAEDTAVYYCARVRYIWGEGDWFDPWGQGTLVTVSS
VL: AQSVLTQPPSASGTPGQRVTISCSGSSSNIGENYVSWYQQLPGTAPKLLIYENYKRSSGVPDRFSGSKSGTSASLAISGLRSEDEADYYCAAWDDSLNSWVFGGGTKLTVLG
notes: Matured variant of M048-D01
For B1, the “fold EC50 reduction” value was greater than 2300 fold in [1] and 40 fold in experiment [2]. The values for the EC50 in experiment [3] and in experiment [4] were 0.2 nM and 0.004 nM, respectively.

B2: TPP-1399 (antibody, human IgG1, lambda, V domains shown)
VH: EVQLLESGGGLVQPGGSLRLSCAASGFTFSSYAMSWVRQAPGKGLEWVSAISKSGGSTFYADSVKGRFTISRDNSKNTLYLQMNSLRAEDTAVYYCARVRYKWGEGDWFDPWGQGTLVTVSS
VL: AQSVLTQPPSASGTPGQRVTISCSGSSSNIGENYVSWYQQLPGTAPKLLIYENYKRPSGVPDRFSGSKSGTSASLAISGLRSEDEADYYCAAWDDSGNSWVFGGGTKLTVLG
notes: Matured variant of M048-D01
On to B2, for which the “fold EC50 reduction” value in [5] is greater than 1500 fold; in experiment [2] it was 39 fold. Also, the results for the EC50 in [3] and in experiment [4] were 0.21 nM and 0.006 nM, respectively.

B3: TPP-1402 (antibody, human IgG1, lambda, V domains shown)
VH: EVQLLESGGGLVQPGGSLRLSCAASGFTFSSYAMSWVRQAPGKGLEWVSAISKSGGSTFYADSVKGRFTISRDNSKNTLYLQMNSLRAEDTAVYYCARVRYIWNHGDWFDPWGQGTLVTVSS
VL: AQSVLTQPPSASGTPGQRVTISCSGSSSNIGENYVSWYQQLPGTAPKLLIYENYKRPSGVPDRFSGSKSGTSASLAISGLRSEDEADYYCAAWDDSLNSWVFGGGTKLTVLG
notes: Matured variant of M048-D01
As for B3, the “fold EC50 reduction” value in [5] is greater than 1500 fold; in [2] it was 37 fold. Moreover, the EC50 in experiment [3] came out at 0.22 nM; in experiment [4] it was 0.007 nM.

B4: M048-D01-mIgG2a (antibody)
heavy: EVQLLESGGGLVQPGGSLRLSCAASGFTFSSYAMSWVRQAPGKGLEWVSAISGSGTSTYYADSVKGRFTISRDNSKNTLYLQMNSLRAEDTAVYYCARVRYNWNHGDWFDPWGQGTLVTVSSAKTTAPSVYPLAPVCGDTTGSSVTLGCLVKGYFPEPVTLTWNSGSLSSGVHTFPAVLQSDLYTLSSSVTVTSSTWPSQSITCNVAHPASSTKVDKKIEPRGPTIKPCPPCKCPAPNLLGGPSVFIFPPKIKDVLMISLSPIVTCVVVDVSEDDPDVQISWFVNNVEVHTAQTQTHREDYNSTLRVVSALPIQHQDWMSGKEFKCKVNNKDLPAPIERTISKPKGSVRAPQVYVLPPPEEEMTKKQVTLTCMVTDFMPEDIYVEWTNNGKTELNYKNTEPVLDSDGSYFMYSKLRVEKKNWVERNSYSCSVVHEGLHNHHTTKSFSRTPGK
VL: QSVLTQPPSASGTPGQRVTISCSGSSSNIGNNYVSWYQQLPGTAPKLLIYENYNRPAGVPDRFSGSKSGTSASLAISGLRSEDEADYYCSSWDDSLNYWVFGGGTKLTVL
notes: Murine IgG2a format of M048-D01
B4 showed an EC50 in [6] of no more than 1 nM.

B5: M021-H02-hIgG1 (antibody, V domains shown)
VH: EVQLLESGGGLVQPGGSLRLSCAASGFTFSNYGIHWVRQAPGKGLEWVAVISYDGSNKYYADSVKGRFTISRDNSKNTLYLQMNSLRAEDTAMYYCARDSSSAEDYWGQGTLVTVSS
VL: QSVLTQPPSASGTPGQRVTISCSGSSSNTGSNTVNWYQQLPGTAPKLLIYRNNQRPSGVPDRFSGSKSGTSASLAISGLRSEDEADYYCETWDSNTRGVVFGGGTKLTVL
notes: Human IgG1; also called M021-1-102-hIgG1; M021-1-102
Consider B5, for which the “Geo Mean minus Geo Mean of secondary antibody alone (FACS)” value (shortened to “Geo Mean minus Geo Mean”) (with rat FGFR2 on RUCA cells; in experiment [7]) was 100 to 1000 geomean each time.

B6: M054-A05-hIgG1 (antibody, V domains shown)
VH: EVQLLESGGGLVQPGGSLRLSCAASGFTFSNYGMYWVRQAPGKGLEWVAVISYDGTNKYYVDSVKGRFTISRDNSKNTLYLQMNSLRAEDTAVYYCAKDLPKWGGFDSWGQGTLVTVSS
VL: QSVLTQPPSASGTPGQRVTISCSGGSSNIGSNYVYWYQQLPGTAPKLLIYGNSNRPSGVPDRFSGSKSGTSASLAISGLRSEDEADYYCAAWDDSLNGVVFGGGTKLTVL
notes: Human IgG1
As to B6, the “Geo Mean minus Geo Mean” value in experiment [7] was in the range of 1000 to 10000 geomean; in experiment [8], 100 to 1000 geomean.

B7: M054-D03-hIgG1 (antibody, V domains shown)
VH: EVQLLESGGGLVQPGGSLRLSCAASGFTFSNYGMHWVRQAPGKGLEWVAVISYDGSNKYYADSVKGRFTISRDNSKNTLYLQMNSLRAEDTAVYYCAKETNDVPFDYWGQGTLVTVSS
VL: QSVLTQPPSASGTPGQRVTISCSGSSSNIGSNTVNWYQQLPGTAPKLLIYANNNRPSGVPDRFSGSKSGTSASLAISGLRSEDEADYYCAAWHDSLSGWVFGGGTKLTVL
notes: Human IgG1
Take B7: the “Geo Mean minus Geo Mean” value (with rat FGFR2 on RUCA cells; in experiment [7]) was 100 to 1000 geomean each time.

B8: M017-B02-hIgG1 (antibody, V domains shown)
VH: EVQLLESGGGLVQPGGSLRLSCAASGFTFRTSGMHWVRQAPGKGLEWVAVISYDGSNKYYADSVKGRFTISRDNSKNTLYLQMNSLRAEDTAVYYCARESPGYDFEYWGQGTLVTVSS
VL: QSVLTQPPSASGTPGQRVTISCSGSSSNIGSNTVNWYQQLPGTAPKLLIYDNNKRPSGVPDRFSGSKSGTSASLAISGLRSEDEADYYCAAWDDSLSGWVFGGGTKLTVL
notes: Human IgG1
Consider B8, for which the “Geo Mean minus Geo Mean” value fell in the range of 100 to 1000 geomean with rat FGFR2 on RUCA cells, 1000 to 10000 geomean in experiment [7] and 100 to 1000 geomean in experiment [8].

B9: TPP-1408 (antibody, human IgG1, lambda, V domains shown)
VH: EVQLLESGGGLVQPGGSLRLSCAASGFTFSHSGMHWVRQAPGKGLEWVAVISYDGSNKYYADSVKGRFTISRDNSKNTLYLQMNSLRAEDTAVYYCAREQPVYDFEYWGQGTLVTVSS
VL: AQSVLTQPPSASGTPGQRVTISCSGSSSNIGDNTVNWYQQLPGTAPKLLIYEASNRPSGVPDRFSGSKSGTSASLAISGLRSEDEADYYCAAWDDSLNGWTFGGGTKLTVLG
notes: Matured variant of M047-D08
As to B9, the “fold EC50 reduction” value in experiment [9] was greater than 4 fold; in experiment [10], 27 fold. Besides, the fold signal in experiment [9] worked out at 10 fold. Besides, the results for the EC50 in experiment [3] and in [4] were 0.29 nM and 2.5 nM, respectively.
